{"source": "patent US20100015637A1", "about": "(AbbVie / Abbott, published 2010)", "key": {"[1]": {"target": "T1, human PlGF-1 fragment (comprising amino acids 17-131) produced in human embryonic kidney cells (human, UniProt P49763 35-221)", "T1 sequence": "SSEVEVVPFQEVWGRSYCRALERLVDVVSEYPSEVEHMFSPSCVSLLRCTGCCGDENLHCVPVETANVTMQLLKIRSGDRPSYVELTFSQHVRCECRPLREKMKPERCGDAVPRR", "test": "… sandwich, capture MAb255, detection pAb264; antigen 250 pg/mL"}, "[2]": {"target": "T2, CHO human PlGF-1 comprising amino acids 1-137 (human PlGF-1-His (1-131), CHO 6305) (human, UniProt P49763 19-221, N-glycans at N21 (completely glycosylated) and N89 (partially glycosylated))", "T2 construct": "Mature human PlGF-1 with 6xHis tag (137 amino acids); also called CHO (1-137)", "T2 sequence": "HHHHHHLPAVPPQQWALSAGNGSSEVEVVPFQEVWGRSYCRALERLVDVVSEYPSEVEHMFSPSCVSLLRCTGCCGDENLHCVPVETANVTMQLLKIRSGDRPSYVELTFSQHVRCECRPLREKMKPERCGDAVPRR", "test": "… sandwich, capture MAb255, detection pAb264; antigen 250 pg/mL"}}, "data": [{"binder": "monoclonal antibody 1-255-713 (produced by murine hybridoma cell line 1-255-713, ATCC PTA-8536) (antibody, mouse IgG2a, V domains shown, also called MAb255) VH: QVHLQQSGAELMKPGASVKISCKATGYTFSSYWIEWVKQRPGHGLEWIGEILPGSVSNNFNEKFKDKATLTADPSSNTAYIQVSSLTSEDSAVYYCARSTGFYYGGNYFDHWGQGTTLAVSS VL: DVVMTQTPLSLPVSPGDQASISCRSSQSLVHSNGHTYLHWYLQKPGQSPKLLIYKVSNRFSGVPDRVSGSGSGTDFTLKISRVEAEDLGVYFCSQSTHVPPTFGGGTKLEIKR", "values": [{"measurement": "RLU", "setting": "[1]", "result": 363000, "unit": "RLU"}, {"measurement": "RLU", "setting": "[2]", "result": 226000, "unit": "RLU"}]}]}
